Reference: the Immune Epitope Database (IEDB)
Blank lines part the entries; values can stand above or below the sequence they belong to.

Key:
HLA-A*02:01 [1] = experiment: IEDB peptide-MHC binding, purified MHC/competitive/fluorescence; filed as Kd, often an IC50 or EC50 that approximates it; ≥ and ≤ were set here for values at or beyond the usual limits of such assays
HLA-A*02:03 [2] = experiment: as above
HLA-A*02:06 [3] = experiment: as above
HLA-A*26:01 = experiment: as above
HLA-A*26:03 = experiment: as above
HLA-A*30:01 [4] = experiment: as above; details: source organism: Human immunodeficiency virus 1
HLA-B*15:01 [5] = experiment: as above
HLA-B*39:01 = experiment: as above; details: source organism: Human immunodeficiency virus 1
HLA-A*01:01 [6] = experiment: IEDB peptide-MHC binding, purified MHC/competitive/fluorescence; ≥ and ≤ were set here for values at or beyond the usual limits of such assays; details: source organism: Mus musculus
HLA-A*25:01 = experiment: as above; details: source organism: Mus musculus
HLA-A*01:01 [7] = experiment: IEDB peptide-MHC binding, purified MHC/direct/fluorescence; filed as Kd, often an IC50 or EC50 that approximates it; ≥ and ≤ were set here for values at or beyond the usual limits of such assays
HLA-A*30:01 [8] = experiment: as above; details: source organism: Bacillus cereus NVH0597-99
HLA-A*80:01 = experiment: as above
HLA-A*03:01 = experiment: as above
HLA-A*11:01 = experiment: as above; details: source organism: Camelpox virus M-96
HLA-A*31:01 = experiment: as above; details: source organism: Camelpox virus M-96
HLA-A*68:02 = experiment: as above; details: source organism: Camelpox virus M-96
HLA-A*69:01 = experiment: as above
HLA-B*07:02 = experiment: as above
HLA-B*08:02 = experiment: as above
HLA-B*15:17 = experiment: as above; details: source organism: Camelpox virus M-96
HLA-B*40:01 = experiment: as above
HLA-B*46:01 = experiment: as above
HLA-B*48:01 = experiment: as above; details: source organism: Camelpox virus M-96
HLA-B*58:01 = experiment: as above
HLA-A*01:01 [9] = experiment: IEDB peptide-MHC binding, purified MHC/competitive/fluorescence; filed as Kd, often an IC50 or EC50 that approximates it; ≥ and ≤ were set here for values at or beyond the usual limits of such assays; details: source organism: Vaccinia virus WR
HLA-A*26:02 = experiment: as above; details: source organism: Vaccinia virus WR
HLA-B*27:05 [10] = experiment: as above; details: source organism: Vaccinia virus WR
HLA-B*35:01 = experiment: as above; details: source organism: Vaccinia virus WR
HLA-B*57:01 = experiment: as above; details: source organism: Vaccinia virus WR
HLA-A*30:01 [11] = experiment: IEDB peptide-MHC binding, purified MHC/competitive/radioactivity; filed as Kd, often an IC50 or EC50 that approximates it; ≥ and ≤ were set here for values at or beyond the usual limits of such assays; details: source organism: Vaccinia virus WR
HLA-A*02:01 [12] = experiment: IEDB peptide-MHC binding, cellular MHC/competitive/fluorescence; ≥ and ≤ were set here for values at or beyond the usual limits of such assays; details: source organism: Mycobacterium tuberculosis
HLA-A*02:01 [13] = experiment: IEDB peptide-MHC binding, purified MHC/direct/fluorescence; filed as Kd, often an IC50 or EC50 that approximates it; ≥ and ≤ were set here for values at or beyond the usual limits of such assays; details: source organism: Influenza A virus (A/Puerto Rico/8/34/Mount Sinai(H1N1))
HLA-A*02:03 [14] = experiment: as above; details: source organism: Influenza A virus H3N2
HLA-A*02:06 [15] = experiment: as above; details: source organism: Influenza A virus H3N2
HLA-A*02:11 = experiment: as above; details: source organism: Influenza A virus H3N2
HLA-A*02:12 = experiment: as above; details: source organism: Influenza A virus H3N2
HLA-A*02:19 = experiment: as above; details: source organism: Influenza A virus H3N2
HLA-A*24:02 = experiment: as above; details: source organism: Influenza A virus (A/turkey/Minnesota/1200/1980(H7N3))
HLA-B*08:01 = experiment: as above; details: source organism: Influenza A virus (A/turkey/Minnesota/1200/1980(H7N3))
HLA-B*15:01 [16] = experiment: as above; details: source organism: Influenza A virus (A/turkey/Minnesota/1200/1980(H7N3))
HLA-B*27:05 [17] = experiment: as above; details: source organism: Influenza A virus (A/turkey/Minnesota/1200/1980(H7N3))
HLA-B*44:02 = experiment: as above; details: source organism: Influenza A virus (A/turkey/Minnesota/1200/1980(H7N3))
[18] = source organism: Human immunodeficiency virus 1
[19] = source organism: Bacillus anthracis
[20] = source organism: Camelpox virus M-96
[21] = source organism: Vaccinia virus WR
[22] = source organism: Influenza A virus (A/turkey/Minnesota/1200/1980(H7N3))

Sequence: KLKSLYNTV
Kd (HLA-A*02:01 [1]; [18]): 26.1 nM
Kd (HLA-A*02:03 [2]; [18]): 13.1 nM
Kd (HLA-A*02:06 [3]; [18]): 17.4 nM
Kd (HLA-A*26:01; [18]): ≥ 20000 nM
Kd (HLA-A*26:03; [18]): ≥ 20000 nM
Kd (HLA-A*30:01 [4]): 1.3 nM
Kd (HLA-B*15:01 [5]; [18]): ≥ 20000 nM
Kd (HLA-B*39:01): ≥ 20000 nM

IC50 (HLA-A*01:01 [6]): 1940 nM
IC50 (HLA-A*25:01): ≥ 20000 nM
Sequence: FSSCPVAY

Sequence: TTLRYPIGK
Kd (HLA-A*01:01 [7]; [19]): ≥ 20000 nM
Kd (HLA-A*30:01 [8]): 81 nM
Kd (HLA-A*80:01; [19]): ≥ 20000 nM

Sequence: KVFDKSLLY
Kd (HLA-A*03:01; [20]): 35 nM
Kd (HLA-A*11:01): 4 nM
Kd (HLA-A*31:01): 2760 nM
Kd (HLA-A*68:02): ≥ 20000 nM
Kd (HLA-A*69:01; [20]): ≥ 20000 nM
Kd (HLA-B*07:02; [20]): ≥ 20000 nM
Kd (HLA-B*08:02; source organism: Variola virus): ≥ 20000 nM
Kd (HLA-B*15:17): 2.3 nM
Kd (HLA-B*40:01; [20]): ≥ 20000 nM
Kd (HLA-B*46:01; [20]): ≥ 20000 nM
Kd (HLA-B*48:01): ≥ 20000 nM
Kd (HLA-B*58:01; source organism: Variola virus): 5 nM
Kd (HLA-A*01:01 [9]): 2480 nM
Kd (HLA-A*02:01 [1]; [21]): ≥ 20000 nM
Kd (HLA-A*02:03 [2]; [21]): ≥ 20000 nM
Kd (HLA-A*02:06 [3]; [21]): 3100 nM
Kd (HLA-A*26:01; [21]): 1750 nM
Kd (HLA-A*26:02): 1990 nM
Kd (HLA-A*26:03; [21]): ≥ 20000 nM
Kd (HLA-B*15:01 [5]; [21]): 374 nM
Kd (HLA-B*27:05 [10]): ≥ 20000 nM
Kd (HLA-B*35:01): 8.2 nM
Kd (HLA-B*57:01): 424 nM
Kd (HLA-A*30:01 [11]): 71 nM

Sequence: AQLLTEFAI
IC50 (HLA-A*02:01 [12]): 25000 nM

Sequence: VTTEVAFGL
Kd (HLA-A*01:01 [7]; [22]): ≥ 20000 nM
Kd (HLA-A*02:01 [13]): 69 nM
Kd (HLA-A*02:03 [14]): 517 nM
Kd (HLA-A*02:06 [15]): ≤ 1 nM
Kd (HLA-A*02:11): ≤ 1 nM
Kd (HLA-A*02:12): 186 nM
Kd (HLA-A*02:19): 656 nM
Kd (HLA-A*03:01; [22]): ≥ 20000 nM
Kd (HLA-A*24:02): ≥ 20000 nM
Kd (HLA-A*69:01; [22]): ≥ 20000 nM
Kd (HLA-B*07:02; [22]): ≥ 20000 nM
Kd (HLA-B*08:01): ≥ 20000 nM
Kd (HLA-B*08:02; source organism: Influenza A virus H3N2): ≥ 20000 nM
Kd (HLA-B*15:01 [16]): ≥ 20000 nM
Kd (HLA-B*27:05 [17]): ≥ 20000 nM
Kd (HLA-B*40:01; source organism: Influenza A virus (A/Puerto Rico/8/34/Mount Sinai(H1N1))): 15000 nM
Kd (HLA-B*44:02): ≥ 20000 nM
Kd (HLA-B*46:01; [22]): ≥ 20000 nM
Kd (HLA-B*58:01; [22]): 494 nM

Sequence: RVERIKSEY
Kd (HLA-A*80:01; source organism: Yellow fever virus): 33.8 nM
